We go through 20 sequences from a protein production outcome set (Wang et al. 2014).

The nature of the data set: label from the status in PepcDB records.
In the case of “MGDWSKLPEELLGLIALRLYSVIELIRFRSICKSWRSSASGVNKNHSLSSPLIYFKPLQIILARAQANGQILSKYHGTVLSRATFFRVTLASSPDQGWLIKSDTDLKYRNFHLLNCLSRKALGRSRKLISLSEFIVSEIQESYAVVGRRTRETASEFKRVFLVRVQGGDHRVLVIGIDGKIRFWKGGIWNGIKKQVAQFSDFVLDEGLTYAVDTKGIMWWISSAYDIIRYGTKLHENITNGSCGEKRFVRCRGELYIVDRLIDENLLKRKADSYDDNAIVHFRNADYTNADLWEDGNGNDDFFAAQAHRFIHVLHDNLGNVSCKPFERDPPKTIGFKVYKNDEELLKWVEVKSLGDKAIVIATDACFSVSAHEFYGCLPNSIYFTDKKEEEVKVFKLDDGSITTMSESEQSCFQMFVPSFL”, the protein production entry was “not failed”. Regarding “MLDAKTSTLLWAAETFTLAVLLGTLWLHRPSRRHNLYFAAGFLATGFGTVMVALRGDISSFLSIQVGNTLALSAFGFWLAGLLSLEQRKLGGWIAIPALLWIAGMFVPSVPEDMVARILLYHASAATGYFMLAGVLLGSRARASRSRKVLATILILQAFAGAIVASIVIPANAAVPNAIPMTSALSISGMLGFTAIIMISAKIIMEDTEIRLHRLAMTDHLTGVLNRRGLLEEFEHIKKRSHGSDRYVALVLFDIDHFKKINDRYGHQSGDAVLVHFCNIAQRVIGERGLFVRMGGEEFALVAEVESPSSTVTLAEAIRSNLRLSKITARNEAIKVTTSVGISEAMIKDADLSVMMTEADRALYAAKKAGRNRTVIHVNSANVVVPAPDRDENPMDNNADRQVAALNRISAIASR”, the protein production entry is reported as “failed”.

Consider “MASLLPSTGRGENIAGKLLLLIVALLMCIGVVVVYSSGAGWAEQKFSDPQYFLWRQLTFAIAGMAVIFVVGAIDYHIFRKISKLFLFVSIGLLAILLLLKLAHVIHGAARWLGFGPLKFQASDLAKYAIIFHFSRLLSEKRAYIKDLHDGYYPMLVLLMIVVALVALEPNFSTASIIAIIGFTLMFIGGIRIKYLLATASLLIPIAAVFAIAAPYRVARLVSFGGGEKELSYQVRQALLGLGNGGLFGLGLGASKQRELYLPLSYNDFVFVIIGEEYGFIGALVILLLFSGLFACGIIIAKHAPDLFGRYVAIGVTFAIVFFAFINIAVACHLMPTTGVALPFISYGGTALLFNSLGIGLLVSISRYRKKVETIERAQALLESKGGSL”, for which the protein production result is recorded as “failed”.

In the case of “MPLVTRNIEPRHLCRQTLPSVRSELECVTNITLANVIRQLGSLSKYAEDIFGELFTQANTFASRVSSLAERVDRLQVKVTQLDPKEEEVSLQGINTRKAFRSSTIQDQKLFDRNSLPVPVLETYNTCDTPPPLNNLTPYRDDGKEALKFYTDPSYFFDLWKEKMLQDTKDIMKEKRKHRKEKKDNPNRGNVNPRKIKTRKEEWEKMKMGQEFVESKEKLGTSGYPPTLVYQNGSIGCVENVDASSYPPPPQSDSASSPSPSFSEDNLPPPPAEFSYPVDNQRGSGLAGPKRSSVVSPSHPPPAPPLGSPPGPKPGFAPPPAPPPPPPPMIGIPPPPPPVGFGSPGTPPPPSPPSFPPHPDFAAPPPPPPPPAADYPTLPPPPLSQPTGGAPPPPPPPPPPGPPPPPFTGADGQPAIPPPLSDTTKPKSSLPAVSDARSDLLSAIRQGFQLRRVEEQREQEKRDVVGNDVATILSRRIAVEYSDSEDDSSEFDEDDWSD”, the protein production entry is “not failed”. Under “MSRVPEPSVFLVVDEAKRKARERGVGLIDLSIGSTDLPPPEAPLKALAEALNDPTTYGYCLKSCTLPFLEEAARWYEGRYGVGLDPRREALALIGSQEGLAHLLLALTEPEDLLLLPEVAYPSYFGAARVASLRTFLIPLREDGLADLKAVPEGVWREAKVLLLNYPNNPTGAVADWGYFEEALGLARKHGLWLIHDNPYVDQVYEGEAPSPLALPGAKERVVELFSLSKSYNLAGFRLGFALGSEEALARLERVKGVIDFNQYAGVLRMGVEALKTPKEVVRGYARVYRERALGMAEALKGVLSLLPPRATMYLWGRLPEGVDDLEFGLRLVERGVALAPGRGFGPGGKGFVRIALVRPLEELLEAAKRIREALD” stands “not failed”.

Consider “MNKSTCLMAAETPSKRWRLHCLAFSQRFVRAGPACSSREACSSPRAGWNPAGFRLPGRWSPFVALHLVCQIREALKLRSGHRTPSGAGSSMQPPPSLCGRALVALVLACGLSRIWGEERGFPPDRATPLLQTAEIMTPPTKTLWPKGSNASLARSLAPAEVPKGDRTAGSPPRTISPPPCQGPIEIKETFKYINTVVSCLVFVLGIIGNSTLLRIIYKNKCMRNGPNILIASLALGDLLHIVIDIPINVYKLLAEDWPFGAEMCKLVPFIQKASVGITVLSLCALSIDRYRAVASWSRIKGIGVPKWTAVEIVLIWVVSVVLAVPEAIGFDIITMDYKGSYLRICLLHPVQKTAFMQFYKTAKDWWLFSFYFCLPLAITAFFYTLMTCEMLRKKSGMQIALNDHLKQRREVAKTVFCLVLVFALCWLPLHLSRILKLTLYNQNDPNRCELLSFLLVLDYIGINMASLNSCINPIALYLVSKRFKNCFKSCLCCWCQSFEEKQSLEEKQSCLKFKANDHGYDNFRSSNKYSSS”, for which the protein production result is listed as “failed”. Take “MQRTLGEIMKIYFATGNPNKIKEANIILKDLKDVEIEQIKISYPEIQGTLEEVAEFGAKWVYNILKKPVIVEDSGFFVEALNGFPGTYSKFVQETIGNEGILKLLEGKDNRNAYFKTVIGYCDENGVRLFKGIVKGRVSEEIRSKGYGFAYDSIFIPEEEERTFAEMTTEEKSQISHRKKAFEEFKKFLLDRI”: the protein production entry is listed as “not failed”. For “MLEHLIKISRRNWSSLKVIILAGGRGKRITLFKPFLVVCGKPLISWAFDAVNKLSDKVYLGINQSHPLFTIFKHSIFKIFPTPDISYENDVKYVVESLGPPILVLPVDIAFINNNIINNLIERCAVDMCTLKSYGSYLGVTYWTGLNFSNYTDIEVKEKLYNINTWEDYIKANKECNILLEHHHHHH”, the protein production entry was “not failed”. With “MDLRRRQWFLSAILLSAALLIDPQFSTAATASENLVFEVRSKFAGKRVKDLGALRAHDVHRHSRLLSAIDIPLGGDSQPESIGLYFAKIGLGTPSRDFHVQVDTGSDILWVNCAGCIRCPRKSDLVELTPYDVDASSTAKSVSCSDNFCSYVNQRSECHSGSTCQYVIMYGDGSSTNGYLVKDVVHLDLVTGNRQTGSTNGTIIFGCGSKQSGQLGESQAAVDGIMGFGQSNSSFISQLASQGKVKRSFAHCLDNNNGGGIFAIGEVVSPKVKTTPMLSKSAHYSVNLNAIEVGNSVLELSSNAFDSGDDKGVIIDSGTTLVYLPDAVYNPLLNEILASHPELTLHTVQESFTCFHYTDKLDRFPTVTFQFDKSVSLAVYPREYLFQVREDTWCFGWQNGGLQTKGGASLTILGDMALSNKLVVYDIENQVIGWTNHNCSGGIQVKDEESGAIYTVGAHNLSWSSSLAITKLLTLVSLLIPFFCNVAL”, the protein production result was “not failed”. Consider “MWVWNMVEIKIVFGSSENMEEIPDNSVHLVVTSPPYYNAPFDFPGLFSSYEEYLNLLRKVGKELMRVLQPGRYACFVTQDVRIEGKLYPIVSDLIHIMVHELGFEYQDKIIWRKPEGYIRISRRSGVLIQHPYPMYYYPDNIYEEVVIFKKPGKFDRSAVPPEIREKSKISISKFQAEKWYLSVWDIKNVLPHEKWSKYTAPFPEELAERLIRLYSYVGETVLDPFLGSGTTCVVSRKLHRNCIGYEIDLELREIIEERLG”, for which the protein production entry is reported as “failed”. As for “MIVPYSVEDILKDGCFLERAEIDRLLDRLRTKKNLILQGPPGTGKTWLAKRLAFALMGQKDDSKVRAVQFHPNLSYEDFVRGWRPTGEGKLSLADGVFMEAIKAASKDPSSKFVVVIEEINRGNPAQIFGELLTLLEAGKRTPNEALELCYPDADGKRRPVHIPENLYVVGTMNIADRSLALVDLALRRRFAFVGLEPRLGQVWRDWVVKECAVDPLEHHHHHH”, the protein production entry is reported as “failed”. The entry for “MQKVEGIIFDMDGVLFDSERISLEFWMETFEKYGYTMTKEIYTSVMGRNRKGIIEGLTDIYDSSVPIIDLYDEKTKNMIEFMERKGAPIKLGVNELISFLKENGYKMAVATSTKRERAVKRLAKANLKDYFDAIVCGDDVVNSKPNPEIFLKAAKKINVNPKNCIVIEDSPMGVEAAYNGGIRCINVPDLKEPDEQIKSQSHKILENLLEVREYLKSLNSKECHNL” is “failed”. As to “MAESLITKKAIAGGLMELCQHKRFEKISIADITNICGLNRQTFYYHFTDKYDLLTWTYENDFFHCLADGITLENWDKHVLKMLESIKENADFYKNTVSADASILSFCFSKLTNSLFMDLFEKIDTNGAVNEADRVFYAEFFSYGCSGVLIKWITRGFKEAPETIANQLFRLAKDTEFLANSMYRENLEHHHHHH”, the protein production entry was “not failed”. With “MLDSINRVLDRPDFGKLFLRVSFSVLMLFHGWHKLHGGIGFIEGMLTNAGLPAFVGYGVYVGEIIIPIMMILGIFTRPAALIFSFTMFVASLLVHSGDFLSLEKTGAWAVEGAAVFFFAGIAIALLGSGKYSVMSNPRWR”, the protein production result was “failed”.

For SLMDVKCETPNCPFFMSVNTQPLCHECSERRQKNQN, the protein production entry is given as “not failed”. Consider “MTISEVSKKYELSADTLRYYERIGLIPPVNRNKSGIRSFTEEDCEWVNFIKCMRGAGLSIETLIEYVAMFQQGSSTIKARKELLIEQRNQLAKRIEEMQKTLERLNFKIDRYEEGIIEKEKVLKSSRNKKMEAVS”, for which the protein production entry is on record as “failed”. “MRISKTTKIGALTLIALFLLYFGLNYLKGFNVFKRANVYYAAFPEVKNVNIASPVLVNGYKVGVVKSLSFDYKNGRSIVVGIDLESEYRMPKGSHLAIHQTALSGAELRIIQGDPRDGYLNPGDTIRSETPDDIMSVTSNKIVPSVVNMMPKVDSVIVGLANMVNNPNLAVMMENMAATAQRLNRLTASLDKSIGTQLPAVMANTRTITDNVAMLSEELKQLKLEALMAELQATSENLRSFSDQIRNSNGSLGMLLNDKSLYMRLDSMASSADALLRDLKANPKRYVHFSVF”: the protein production entry was “failed”.

Consider “MIYKITLTDISLAQAFISIPQDVIALDLSNNLLGSKSCVDLLVNIADCIPAGVTSLDLSSNGLRLTQVSLVTPKHVTSLNLCFNPLHEISIDGLEWLKDSLAHIQIIYLSYDMVNNMSREQRQAFRAVIPNIQTIILVDKNGKEIGPSHTAKIANLISELGGGNPEVPSLLNQCTFFVKTQGINIDKAYIPEELKKRIHDCNPL”, for which the protein production result is recorded as “failed”. For the sequence “MLKILKRIVQDVTAASDLKEALGILVQRINTAINAEAVSVYLIDNKNAEYVLIATEGLNKQAEFRVRIALDCGLIGLIGRREEPINIENAPSHPDFYHNPLIGEDHLNAFLGVPIIQHRKLYGVLVVQQLEQRYFDDAEESFLITLAAQLGGIIAHAEATGELAELTQ”, the protein production result was “failed”. With “MKALNKIRYAFLVCTLMVLVTLAGCNSADRSAEPPQSSHQGSEQEGAKKTPLNVEVFNLGERSMFAVSSVLVTGTADAILIDTQFSAADARQLVDKIKASGKRLKAIYISHGDPDYYFGLDSVHAAFPEAKVFATPQTIAHIQATKDAKLKLWAPQLGQDAPKQILIPEPMQGDQLVLEGQELRIIGMDGPTPDRTFVWIPSSRTVAGGISVMGAQHVWMADTQTPQSHMEWLAVLDRIKSMDPKVVVPGHFLPGASLDVRSVTFTADYIRAFDEETVKAKDSAALIAAMKQRYPGLGGEGSLELSAKVAKGEMEWK”, the protein production result is on record as “failed”.
